pIC50: −log10 of the molar value.
How the values were obtained:
Assay in all cases: IEDB peptide-MHC binding, purified MHC/competitive/radioactivity; ≥ and ≤ were set here for values at or beyond the usual limits of such assays
Conditions in all cases: source organism: Hepatitis B virus
HLA-A*01:01 = biological target: HLA-A*01:01
HLA-A*29:02 = biological target: HLA-A*29:02
HLA-A*30:02 = biological target: HLA-A*30:02
HLA-B*53:01 = biological target: HLA-B*53:01
HLA-B*54:01 = biological target: HLA-B*54:01
HLA-B*51:01 = biological target: HLA-B*51:01
HLA-A*68:01 = biological target: HLA-A*68:01
HLA-A*24:02 = biological target: HLA-A*24:02
HLA-A*23:01 = biological target: HLA-A*23:01
HLA-A*33:01 = biological target: HLA-A*33:01
HLA-A*31:01 = biological target: HLA-A*31:01
HLA-B*35:01 = biological target: HLA-B*35:01
HLA-A*02:03 = biological target: HLA-A*02:03
HLA-A*02:06 = biological target: HLA-A*02:06
HLA-A*68:02 = biological target: HLA-A*68:02
HLA-A*02:02 = biological target: HLA-A*02:02

Sequence ASFCGSPY has a pIC50 (HLA-A*01:01) of 7.29, a pIC50 (HLA-A*29:02) of 7.06 and a pIC50 (HLA-A*30:02) of 8.37.
Work on FPHCLAFSYM yielded a pIC50 (HLA-B*53:01) of 6.89, a pIC50 (HLA-B*54:01) of 6.67 and a pIC50 (HLA-B*51:01) of 7.16.
HTLWKAGILYK showed a pIC50 (HLA-A*68:01) of 7.32.
LSLDVSAAFY showed a pIC50 (HLA-A*01:01) of 6.48 and a pIC50 (HLA-A*29:02) of 7.35.
Work on LWFHISCLTF yielded a pIC50 (HLA-A*24:02) of 8.19 and a pIC50 (HLA-A*23:01) of 8.11.
In the case of QAFTFSPTYK, the pIC50 (HLA-A*68:01) was 8.15.
For RFSWLSLLVPF, the pIC50 (HLA-A*24:02) was 7.00 and the pIC50 (HLA-A*23:01) was 7.90.
With RWMCLRRFII the pIC50 (HLA-A*23:01) was 8.12.
Work on SAICSVVRR yielded a pIC50 (HLA-A*68:01) of 7.64.
STLPETTVVRR gave a pIC50 (HLA-A*33:01) of 6.73 and a pIC50 (HLA-A*31:01) of 6.72.
TPARVTGGVF was tested, and the pIC50 (HLA-B*35:01) was 7.15.
Work on WMMWYWGPSLY yielded a pIC50 (HLA-A*29:02) of 6.87 and a pIC50 (HLA-A*30:02) of 7.33.
YMDDVVLGV showed a pIC50 (HLA-A*02:03) of 7.94, a pIC50 (HLA-A*02:06) of 7.04 and a pIC50 (HLA-A*68:02) of 6.38. The pIC50 (HLA-A*02:02) was 7.04.
YPALMPLYACI was tested, and the pIC50 (HLA-B*54:01) was 6.95 and the pIC50 (HLA-B*51:01) was 6.92.
